Test results from the DeepSol protein solubility set.

Assay: soluble on expression in E. coli; label from the status in PepcDB or PDB records
With “MGSDKIHHHHHHVFDKNLRNSFFAEPYSSEPLAIRIREVLNGKVGFYSVGLYPASLAYNCALQNEGFNILLAPRDGRELFGAFSDIDLSEMDNGIKNKIESMAIPNEDKSGRYNTLKDLLINCELVVLSSNSKHIITDLDLAFKLRKELNRDNVLIACLVGSFCHDHNLNESFVLCEKLNKLAFFSGFHRHGALRNPLDSFTANFCHPDSMNAILGAKLLNKISPNIQVSAGIHNVEGQYIKAAKNISSIFAGFGHTFHKNNPGLLPTLLTLLLDQCLDQAAYVSMSRTDREDLYSKQPFPITELGYSVQRIEASYVKDGDFVQVRDHTFTQLKAMVADVRGSMMLPVSGNPTRNFQAGQVLAERMIEYKRCPKGVDEFIEWCERSGLKRGALEGINSLNYWPNILRKYSIPLNNSSMINLLYMCILGPVEIKNCIYNVMSSSRELANYCQESVKSSQNKKISEALDNFHLKTSVDFVTKSLIDDDKLFFENNEIGFDNPLGAQNMPIYNKVIDYMETYLLESNL” the “soluble on expression in E. coli” value was “not soluble”.
For “MGSDKIHHHHHHVHPTLPHAGKNWPLSARDSPATAMAGKGINAVCLFRYQRRWHQSCFILEHAPGTRNPMTWTECLAVTAFGAFVIDRYDWTGTVKRSSNDEELLVHERLGVVSVQTSPLRRAKPALRHLRGLLIEYDCPVECIAVFAAPHCALDPTLPETTLQASELHHFMRTRFNRFRDSHRQYLDSERIAAYLQLHCTDWGENCV”, the “soluble on expression in E. coli” value was “not soluble”.
For “MGSDKIHHHHHHVLAPSSADTLQGLPYEVVSYRKTYESGYRSDWHSHPRHQIIYSVSGLMMTDTEGVRWAVPSGFGLIVPAGIAHTTKMIGDVSIETLYVSPSSRGRSAFESCRVVSISAMLASLISELCREELRDRNSRKAFHLRQLIFLELSDAPTSHLAVKYPVDPQLRRVCDALIADPANSWTIDQWAFEIGKSRRSFTRAFYSQTDQTFRQWTQRLRCQLALQKRAEGQSLERIARDLGYGSRYSLEAMMQKLIMVEEIN”, the “soluble on expression in E. coli” value was “not soluble”.
With “MGSDKIHHHHHHVNPLLDSLQPYPFEKLRALFKDVTPNAGLAHISFGIGEPKHPTPALIRDAVVASLGGLSAYPATSGSPALRESIAKWVTQRYNLPPVDPATQVLPVSGSREALFSLAQTVLDPQKNAGGEPAIVLCPNPFYQIYEGAAILAGAQPYFVNSDPARNFACDYSAVPAEIWARTQLLYVCSPGNPTGAVLTLDDWRELFALSDRYGFVIASDECYSEIYFDEAKPPLGGLEAAHKLGRGFERLVMLSSLSKRSNVPGMRSGFVAGDAAILKDFLLYRTYHGAALSTVFQNASIAAWNDEAHVRENRAKYLQKFSTVTPMLAEVLDVRLPDAAFYLWADVSRTGLTDTVFAQRLYADYNVTVLPGSFLARTAHGVNPGRNFVRMALVADVDECTQGAQRIVDFCRALAG” the “soluble on expression in E. coli” value was “not soluble”.
For “MGSDKIHHHHHHVPATYPLSSCIEWQFAEAGDLAARVRAAKADGFDLVEFHLWRDKPVEAIGAALADTGVALTGVCVDPRRSIVDPAERAEMVEAVRETIAATAPLGKPPLIVASGFRVEGMSEEDHFANAVAALKQAAALAEDAGVTLLLEPLNTRLFSAMYLVSTTLGLDLVEAVGSPNLRLLYDVWHSAVMGEDIADVLAGRIGLVAHVQVADMEDRNEPGTGTVDWAHVMNTLKSLGYQGSIGMEYFPTLPMDQSLKLTRETLAL”, the “soluble on expression in E. coli” value was “not soluble”.
For “MGSDKIHHHHHHVVKHPAWSRFGAEVRRLRVQSGYSQAQLARAIPLSQSMLSGIELGRKGAKRDHAEALDRVLNTGGRLVRLWDSLNSIPAHPSWFQNVLALERKAVEIREYQMVVLPGLLQTEDYARSLIRPAQPWANAEKVDELVHARMSRREILTAPDRPLCWFVVDQVVIDRVTGSPTVMKEQLTYLLNLIEDHTIRFQVFPQEIPLHPGLTGPIRIMSFDDRPTMAYVEHTLGGLLTDQQQEVRYCSAIFSALQSEALSSHASADYIRRRKDQL”, the “soluble on expression in E. coli” value was “not soluble”.
For “MGSDKIHHHHHHWLDLAPSTQVDTETSINVLSDIEFTLNGIYSTMQSSDAYSGRLVYYGDVTGDDMQAVSSTKRTGNYYRFNFTKDNGPSSHWSYLYSIIQNCNLILMNVDKLSIDEDETEYKNDLKGQALAIRGMALFDLTRIFGYPYLKDNGASLGVPIVKELSTIDSKPARNTVAECYTEIISDLKNSTELLSGDFNKGKVNRWAAMTLLSRVYLYKGEYNEALTMAENAIKGAEKEGYALWTNEEYPTAWGNDASASNPGEILFEIVNLTTDSPGKESMGYLNSYNGYDDMCITCSFYQLLKKDPKDVRLKILSFDKKYYAYVNKYQPQQGENITDANIPLIRLSEAYLNAAEAAVQTGDNAKAVKYLNSIVQRANPENSVEGKTLTLENVLDERRKELVAEGHRMYDVIRNGMTVKRIDVKDSDINKTKHNTAYMEYDWNFHKILLPIPKKEMDANPNMKQNPGYVD”, the “soluble on expression in E. coli” value was “not soluble”.
In the case of “MGSDKIHHHHHHWQVTGSKTTQDGVEAARMCGIDSYPLRLEPQLVCDTEDLDALMNVDALVITLPARRTGAGEGFYLQAVQEIVDTALAYHIPRIVFTSSTSVYGNVNGTVKENSPRLPQTASGQVLKELEDWLHNLPGTSVDILRLAGLVGPSRHPGRFFAGKSAPDGQHVVNLVHLQDVVAAIELLLQAPKGGHIYNLCAPRHPARGLFYPQMARELGLPPPVFSDSPDGGQGKIVDGNRICNELGFEYQYPDPLVMPME”, the “soluble on expression in E. coli” value is reported as “not soluble”.
For “MGSGKERDTFVYLAKLSEQAERYEEMVESMKSVAKLNVDLTVEERNLLSVGYKNVIGSRRASWRIFSSIEQKEAVKGNDVNVKRIKEYMEKVELELSNICIDIMSVLDEHLIPSASEGESTVFFNKMKGDYYRYLAEFKSGNERKEAADQSLKAYEIATTAAEAKLPPTHPIRLGLALNFSVFYYEIMNAPERACHLAKQAFDEAISELDTLNEESYKDSTLIMQLLRDNLTLWTSDISEEGGDDAHKTNGSAKPGAGGDDAE”, the “soluble on expression in E. coli” value was “soluble”.
For “MGSHHHHHHDITSLYKKAGSENLYFQGMKFSEECRSAAAEWWEGSFVHPFVQGIGDGTLPIDRFKYYVLQDSYYLTHFAKVQSFGAAYAKDLYTTGRMASHAQGTYEAEMALHREFAELLEISEEERKAFKPSPTAYSFTSHMYRSVLSGNFAEILAALLPCYWLYYEVGEKLLHCDPGHPIYQKWIGTYGGDWFRQQVEEQINRFDELAENSTEEVRAKMKENFVISSYYEYQFWGMAYRKEGWSDSAIKEVEECGASRHNG”, the “soluble on expression in E. coli” value was “soluble”.
For “MGSMVCDVCHHECETAKELESHRQSCINGQCPYCMTITEATESALQAHYSICKLTGR”, the “soluble on expression in E. coli” value was “soluble”.
In the case of “MGSPAHRPALLLLLPPLLLLLLLRVPPSRSFPGSGDSPLEDDEVGYSHPRYKDTPWCSPIKVKYGDVYCRAPQGGYYKTALGTRCDIRCQKGYELHGSSLLICQSNKRWSDKVICKQKRCPTLAMPANGGFKCVDGAYFNSRCEYYCSPGYTLKGERTVTCMDNKAWSGRPASCVDMEPPRIKCPSVKERIAEPNKLTVRVSWETPEGRDTADGILTDVILKGLPPGSNFPEGDHKIQYTVYDRAENKGTCKFRVKVRVKRCGKLNAPENGYMKCSSDGDNYGATCEFSCIGGYELQGSPARVCQSNLAWSGTEPTCAAMNVNVGVRTAAALLDQFYEKRRLLIVSTPTARNLLYRLQLGMLQQAQCGLDLRHITVVELVGVFPTLIGRIGAKIMPPALALQLRLLLRIPLYSFSMVLVDKHGMDKERYVSLVMPVALFNLIDTFPLRKEEMVLQAEMSQTCNT”, the “soluble on expression in E. coli” value is reported as “soluble”.
For “MGSSHHHHHHGGTGENLYFQGGSGASTANASVDGSCPAMRDAADEALWAKLDEVQKLLANRSDAKELFTKYTVLRSVVGEVKPVFADSVRTRVKVFCEEPSFAAPEECDDFEPVSLHVVAYLNYKLFMEEMKELMVQARLLKSIGMEGSGLRFQRREQNIVAPGNEPRTGSSSKPSAQVSMHKPSYRPATLIPVGTLRLRRVSKASGAGKLTEVVAKIERVCVVKSARCFDVGRTLMRAAEKIARDAFHVRWALTYAQLSSKDFYTKAGYTPKDGRACMDLHMPHVVMVKCLVDASM”, the “soluble on expression in E. coli” value was “not soluble”.
With “MGSSHHHHHHGGTGENLYFQGGSGLLSHHCIYPSRMFGDGRLLMDTSISGGMLLGLDVCGGVKLWPQHQYTAVELILPSALSGVREVLVPPVSMSGAGEESQRASEAGSGKQRASSPPLPRNLPGSRVIRIIHEASEIPAEVAGSYNSALNGSRRKGSKAMRSLDRGPAGTSGGRASSSIVPRYFDEFHRLRSQRVMEGSLKTVLEATNASIIGEARLRRQRRRYAVKHNKTIFIKGKTAAGDEQ” the “soluble on expression in E. coli” value was “not soluble”.
With “MGSSHHHHHHGGTGENLYFQGGSGMEKAIRDRVEKWKKEHTIDGKDATNEHAYESLNELILDGKKLTSIKNEEKELLKNFKNLERLCLNQTGIQTLENIPSIATLNVLELTDNHLSSVEVLKYIVQNFPNIKTLEIGGNHFKNINDFETLKELKNLVRLGVQFNPFADNPNYRKELFEFLPNVKIIDCYNKEGMEVLSSDEEEEEEYEEDNTLKNFYEADFKDEDDEDEEFVPNDNEDDDEDDELDDDLEDEDMEDLDKEDLDKEDYDIDTKETEGVNKDEKSNKRKQDALDNTNDMDLKKTKLE” the “soluble on expression in E. coli” value was “soluble”.
In the case of “MGSSHHHHHHGKTIFVIVPTNEEQVAFLEALAKQDELNFDWQNPPTEPGQPVVILIPSDMVEWFLEMLKAKGIPFTVYVEEGGSENLYFQGGGGGGAKDCITRGPNSMIAWKYEDGSFQCDNCIGAHAVGVSSGTVRRRWTEYDKDRNILNSFVEEHREGKKLVLHDESRGMSILLRSDLSGIRTEGEQTFRQLYSGAFISVVDCT”, the “soluble on expression in E. coli” value is reported as “soluble”.
For “MGSSHHHHHHGKTIFVIVPTNEEQVAFLEALAKQDELNFDWQNPPTEPGQPVVILIPSDMVEWFLEMLKAKGIPFTVYVEEGGSENLYFQGGGGGGRPIVANRARHPALIVDIPFAALAWQCVQFLAVVVAHSLMRQMMLASVIRFTAVFLGIRRCRGAFVVAPLFVLQPLLQHLQQLITHPLTCLQGGIQWQLHALVEHLVHLQHLPSPRVQLSHVTKKRRAPVRKVVCGRIIHVHRTLLLLKQLRLLGVPGTQRAESSEHGGEPLTAVLVQLDKSIASRSGDNGDGGGRCR”, the “soluble on expression in E. coli” value was “not soluble”.
In the case of “MGSSHHHHHHSAGENLYFQGQQGDLMPQSALFTGIIPPVSTIFTADGQLDKPGTAALIDDLIKAGVDGLFFLGSGGEFSQLGAEERKAIARFAIDHVDRRVPVLIGTGGTNARETIELSQHAQQAGADGIVVINPYYWKVSEANLIRYFEQVADSVTLPVMLYNFPALTGQDLTPALVKTLADSRSNIIGIKDTIDSVAHLRSMIHTVKGAHPHFTVLCGYDDHLFNTLLLGGDGAISASGNFAPQVSVNLLKAWRDGDVAKAAGYHQTLLQIPQMYQLDTPFVNVIKEAIVLCGRPVSTHVLPPASPLDEPRKAQLKTLLQQLKLCCGRTRAPPPPPLRSGC”, the “soluble on expression in E. coli” value is reported as “soluble”.
With “MGSSHHHHHHSSGLVPRGSGDPDEQYDFLFKLVLVGDASVGKTCVVQRFKTGAFSERQGSTIGVDFTMKTLEIQGKRVKLQIWDTAGQERFRTITQSYYRSANGAILAYDITKRSSFLSVPHWIEDVRKYAGSNIVQLLIGNKSDLSELREVSLAEAQSLAEHYDILCAIETSAKDSSNVEEAFLRVATELIMRHGGPLFS” the “soluble on expression in E. coli” value was “soluble”.
In the case of “MGSSHHHHHHSSGLVPRGSHMAKAPEQTVTEPVGSYARAERPQDFEGFVWRLDNDGKEALPRNFRTSADALRAPEKKFHLDAAYVPSREGMDALHISGSSAFTPAQLKNVAAKLREKTAGPIYDVDLRQESHGYLDGIPVSWYGERDWANLGKSQHEALADERHRLHAALHKTVYIAPLGKHKLPEGGEVRRVQKVQTEQEVAEAAGMRYFRIAATDHVWPTPENIDRFLAFYRTLPQDAWLHFHCEAGVGRTTAFMVMTDMLKNPSVSLKDILYRQHEIGGFYYGEFPIKTKDKDSWKTKYYREKIVMIEQFYRYVQENRADGYQTPWSVWLKSHPAKA”, the “soluble on expression in E. coli” value is reported as “soluble”.
